Substrate: O=C(CNC(=O)OCc1ccccc1)N[C@@H](Cc1ccccc1)C(=O)O
Experiment: Michaelis constant and maximum reaction velocity, hydrolysis of Nα-carbobenzoxyglycyl-L-phenylalanine (ninhydrin method)
Type: biochemical, porcine
Conditions: other: substrate concentration varied from 0.02 to 0.1 M; 25.0 °C
Experimental: The enzyme activity of the enzyme of the invention for Nα-carbobenzoxyglycyl-L-phenylalanine substrate was investigated by the ninhydrin method. […] After the combined solutions stood at 25° C. for 5 minutes, 0.2 ml of an enzyme solution was added, and the solution was incubated at 25° C. for 15 minutes. The reaction was stopped by adding 1 ml of a 3 M acetate buffer solution (pH 5.0) in an ice bath. The ninhydrin reagent was added to effect color development according to the Yemn & Cocking method. The enzyme activity for a casein substrate was investigated by the Kunitz method. Enzyme activities of the enzyme of the invention for benzoylglycyl-L-arginine and elastin were also investigated by the respective methods above. Enzyme activity was observed only for Nα-carbobenzoxyglycyl-L-phenylalanine and casein.
(9) Michaelis constant and maximum reaction velocity

B1: porcine pancreas carboxypeptidase Aγ (new species, obtained in Example 1; NH2-terminal sequence beginning with Asn) (Sus scrofa) (protein)
chain: NYATYHTLEEIYDFMDILVAEHPQLVSKLQIGSSYEGRPIYVLKFSTGGNNRPAIWIDTGIHSREWVTQASGVWFAKKITEDYGQDPAFTAILDNLDIFLEIVTNPDGFAFTHSENRMWRKTRSRTSGSFCVGVDPNRNWDAGFGGAGASSNPCSETYHGKFPNSEVEVKSIVDFVNDHGNIKAFISIHSYSQLLLYPYGYKTEAPADKDELDQISKSAVAALTSLYGTKFQYGSIITTIYQASGGTIDWTYNQGIKYSFSFELRDTGRYGFLLPASQIIPTAQETWLALLTIMEHTLNHPY
notes: from tissue; host or cells: porcine pancreas (from the unit heads)
Km: 20 mM | Vmax: 235.5 µmol/min/mg

Source: US4415667A, “Carboxypeptidase a gamma and process for preparing same” (Eisai Co., Ltd., priority 1981, dated 1983)
